Assay [1] deals with CmFTL3 expressed in chrysanthemum protoplasts (Chrysanthemum morifolium).
For assay [2], the target named is CmFDL1 expressed in chrysanthemum protoplasts (Chrysanthemum morifolium).

On to “CmTCP7 expressed in chrysanthemum protoplasts (natural protein)”, for which the decrease in Luc activity of CmCDM111Lpro:Luc in chrysanthemum protoplasts (dual-luciferase), CmTCP7, CmFTL3 and CmFDL1 co-transfected against CmFTL3 and CmFDL1 in assay [1] and in assay [2] was 80% throughout.

The values are drawn from publication PMC12099206.
